According to patent US20220204643A1 (published 2022):

Experiments:
[1] = target: T1, FA complementation group G (human, UniProt O15287 1-622)
T1 construct: HuProt array protein, full-length recombinant from yeast; also called FANCG
T1 sequence: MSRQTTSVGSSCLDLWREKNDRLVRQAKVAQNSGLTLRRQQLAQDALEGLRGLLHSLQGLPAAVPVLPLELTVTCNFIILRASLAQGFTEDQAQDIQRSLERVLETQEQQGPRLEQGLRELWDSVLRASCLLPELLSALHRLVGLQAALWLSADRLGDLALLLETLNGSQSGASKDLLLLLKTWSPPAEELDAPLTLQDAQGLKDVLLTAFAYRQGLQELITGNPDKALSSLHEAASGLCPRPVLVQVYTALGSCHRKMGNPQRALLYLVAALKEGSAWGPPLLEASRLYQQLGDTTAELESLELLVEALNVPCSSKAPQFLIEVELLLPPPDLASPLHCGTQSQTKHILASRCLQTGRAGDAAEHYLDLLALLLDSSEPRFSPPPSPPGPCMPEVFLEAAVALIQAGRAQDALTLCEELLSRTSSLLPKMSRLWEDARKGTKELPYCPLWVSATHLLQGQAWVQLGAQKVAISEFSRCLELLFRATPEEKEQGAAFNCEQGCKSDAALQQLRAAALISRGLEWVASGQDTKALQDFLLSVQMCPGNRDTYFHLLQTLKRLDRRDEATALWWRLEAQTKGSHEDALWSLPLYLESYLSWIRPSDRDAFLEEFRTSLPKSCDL

DEAD-box helicase 18 = target: T2, DEAD-box helicase 18 (human, UniProt Q9NVP1 1-670)
T2 construct: HuProt array protein, full-length recombinant from yeast; also called DDX18
T2 sequence: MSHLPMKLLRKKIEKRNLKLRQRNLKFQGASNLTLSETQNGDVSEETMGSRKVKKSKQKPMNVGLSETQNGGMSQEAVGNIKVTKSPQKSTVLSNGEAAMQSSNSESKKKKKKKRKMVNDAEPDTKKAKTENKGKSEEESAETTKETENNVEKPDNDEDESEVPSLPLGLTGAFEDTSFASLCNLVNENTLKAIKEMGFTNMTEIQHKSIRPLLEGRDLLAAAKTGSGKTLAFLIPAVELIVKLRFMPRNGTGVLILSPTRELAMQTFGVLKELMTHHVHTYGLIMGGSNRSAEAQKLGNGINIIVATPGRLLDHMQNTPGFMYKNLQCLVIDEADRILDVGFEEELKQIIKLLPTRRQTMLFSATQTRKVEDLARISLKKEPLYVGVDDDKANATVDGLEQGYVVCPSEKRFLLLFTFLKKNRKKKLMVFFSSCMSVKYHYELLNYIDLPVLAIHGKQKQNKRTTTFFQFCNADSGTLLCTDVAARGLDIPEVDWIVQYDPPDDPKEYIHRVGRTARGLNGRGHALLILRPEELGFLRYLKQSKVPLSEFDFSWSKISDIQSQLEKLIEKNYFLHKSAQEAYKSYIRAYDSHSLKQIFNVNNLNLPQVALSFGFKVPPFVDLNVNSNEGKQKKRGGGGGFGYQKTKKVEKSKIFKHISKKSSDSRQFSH

[2] = target: T3, syntaxin 1A, transcript variant 1 (human, UniProt Q16623 1-288)
T3 construct: HuProt array protein, full-length recombinant from yeast; also called STX1A

[3] = target: T4, geminin DNA replication inhibitor, transcript variant 1 (human, UniProt O75496 1-209)
T4 construct: HuProt array protein, full-length recombinant from yeast; also called GMNN
T4 sequence: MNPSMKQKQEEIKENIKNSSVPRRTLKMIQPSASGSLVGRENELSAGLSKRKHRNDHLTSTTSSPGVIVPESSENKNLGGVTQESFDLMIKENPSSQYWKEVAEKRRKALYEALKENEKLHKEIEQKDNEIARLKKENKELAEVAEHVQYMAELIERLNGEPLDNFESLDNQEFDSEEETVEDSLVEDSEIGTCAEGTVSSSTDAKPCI

[4] = target: T5, X-linked inhibitor of apoptosis, transcript variant 2 (human, UniProt P98170 1-497)
T5 construct: HuProt array protein, full-length recombinant from yeast; also called XIAP

[5] = target: T6, endosome associated trafficking regulator 1, transcript variant 2 (human, UniProt Q96C92 59-435)
T6 construct: HuProt array protein, full-length recombinant from yeast; also called SDCCAG3
T6 chain: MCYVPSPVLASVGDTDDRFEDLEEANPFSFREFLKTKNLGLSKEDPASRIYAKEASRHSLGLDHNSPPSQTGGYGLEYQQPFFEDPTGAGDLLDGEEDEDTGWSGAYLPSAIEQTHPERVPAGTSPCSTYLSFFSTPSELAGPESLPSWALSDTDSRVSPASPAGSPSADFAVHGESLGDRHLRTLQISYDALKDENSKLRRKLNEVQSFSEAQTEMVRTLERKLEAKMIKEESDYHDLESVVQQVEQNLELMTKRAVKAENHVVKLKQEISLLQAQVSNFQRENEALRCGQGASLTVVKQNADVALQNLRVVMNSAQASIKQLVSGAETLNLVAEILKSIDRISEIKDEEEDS

[6] = target: T7, charged multivesicular body protein 4B (human, UniProt Q9H444 2-224)
T7 construct: HuProt array protein, full-length recombinant from yeast; also called CHMP4B
T7 sequence: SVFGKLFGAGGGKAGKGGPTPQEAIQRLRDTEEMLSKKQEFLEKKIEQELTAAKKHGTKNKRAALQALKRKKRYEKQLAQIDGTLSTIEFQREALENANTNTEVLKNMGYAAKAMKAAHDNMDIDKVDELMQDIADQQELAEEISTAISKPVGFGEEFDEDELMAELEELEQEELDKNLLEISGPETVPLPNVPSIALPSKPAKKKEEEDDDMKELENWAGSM

[7] = target: T8, Egf like and emi domain containing 1, pseudogene (human, UniProt Q0D2K5 1-195)
T8 construct: HuProt array protein; pseudogene product; also called EGFEM1P
T8 sequence: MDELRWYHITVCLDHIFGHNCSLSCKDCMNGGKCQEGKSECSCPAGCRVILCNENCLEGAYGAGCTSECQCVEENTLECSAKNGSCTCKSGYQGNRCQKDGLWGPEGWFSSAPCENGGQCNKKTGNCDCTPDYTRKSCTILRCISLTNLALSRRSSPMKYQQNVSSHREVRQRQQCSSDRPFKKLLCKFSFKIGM

[8] = target: T9, PNMA family member 5, transcript variant 2 (human, UniProt Q96PV4 1-448)
T9 construct: HuProt array protein, full-length recombinant from yeast; also called PNMA5

[9] = target: T10, phospholipase C delta 1, transcript variant 2 (human, UniProt P51178 1-756)
T10 construct: HuProt array protein, full-length recombinant from yeast; also called PLCD1
T10 sequence: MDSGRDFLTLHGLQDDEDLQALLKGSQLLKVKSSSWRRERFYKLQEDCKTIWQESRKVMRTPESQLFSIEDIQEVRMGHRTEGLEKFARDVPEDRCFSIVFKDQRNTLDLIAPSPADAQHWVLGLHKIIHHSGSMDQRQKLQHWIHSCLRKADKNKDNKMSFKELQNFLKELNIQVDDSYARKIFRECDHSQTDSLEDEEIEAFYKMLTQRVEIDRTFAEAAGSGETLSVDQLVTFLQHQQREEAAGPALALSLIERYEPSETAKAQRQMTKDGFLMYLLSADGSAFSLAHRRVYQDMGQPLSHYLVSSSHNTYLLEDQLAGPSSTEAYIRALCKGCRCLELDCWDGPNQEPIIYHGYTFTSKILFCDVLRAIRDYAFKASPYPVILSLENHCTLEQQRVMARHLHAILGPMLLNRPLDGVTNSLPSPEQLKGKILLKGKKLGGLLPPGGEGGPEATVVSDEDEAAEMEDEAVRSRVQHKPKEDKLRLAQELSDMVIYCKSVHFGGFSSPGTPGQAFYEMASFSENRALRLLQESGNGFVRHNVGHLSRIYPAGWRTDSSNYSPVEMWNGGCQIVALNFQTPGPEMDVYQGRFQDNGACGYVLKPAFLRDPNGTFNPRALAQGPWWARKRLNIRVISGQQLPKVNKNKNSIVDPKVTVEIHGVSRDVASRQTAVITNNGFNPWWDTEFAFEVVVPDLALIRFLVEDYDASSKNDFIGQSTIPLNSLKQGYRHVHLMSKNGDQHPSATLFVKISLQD

[10] = target: T11, zinc finger protein 326, transcript variant 1 (human, UniProt Q5BKZ1 1-582)
T11 construct: HuProt array protein, full-length recombinant from yeast; also called ZNF326
T11 sequence: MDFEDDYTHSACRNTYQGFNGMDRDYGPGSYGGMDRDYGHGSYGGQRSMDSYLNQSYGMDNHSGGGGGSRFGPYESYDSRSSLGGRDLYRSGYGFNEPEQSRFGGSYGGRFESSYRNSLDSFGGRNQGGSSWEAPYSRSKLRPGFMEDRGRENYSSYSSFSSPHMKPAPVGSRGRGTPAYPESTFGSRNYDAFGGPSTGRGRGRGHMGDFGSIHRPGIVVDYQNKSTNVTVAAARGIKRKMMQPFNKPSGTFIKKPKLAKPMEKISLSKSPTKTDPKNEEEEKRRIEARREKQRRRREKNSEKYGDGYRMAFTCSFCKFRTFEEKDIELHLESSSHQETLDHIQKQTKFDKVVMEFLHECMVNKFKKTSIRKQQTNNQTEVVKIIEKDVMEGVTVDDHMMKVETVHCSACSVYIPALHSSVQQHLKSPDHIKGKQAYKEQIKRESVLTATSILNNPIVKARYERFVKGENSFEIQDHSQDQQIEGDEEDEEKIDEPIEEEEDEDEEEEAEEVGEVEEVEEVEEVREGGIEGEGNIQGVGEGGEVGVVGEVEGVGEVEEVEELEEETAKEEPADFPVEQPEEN

T3 sequence (Q16623 whole entry, change not shown): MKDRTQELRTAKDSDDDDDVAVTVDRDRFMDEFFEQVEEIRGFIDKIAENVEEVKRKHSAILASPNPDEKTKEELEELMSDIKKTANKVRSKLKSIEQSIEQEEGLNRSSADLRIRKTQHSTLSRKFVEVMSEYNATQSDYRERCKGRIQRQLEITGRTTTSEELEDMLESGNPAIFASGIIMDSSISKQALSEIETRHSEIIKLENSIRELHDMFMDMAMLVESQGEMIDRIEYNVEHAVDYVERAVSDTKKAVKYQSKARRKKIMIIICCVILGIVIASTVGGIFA
T9 sequence (Q96PV4 other isoform, or with tags, fused parts or gaps mutant limits assumed): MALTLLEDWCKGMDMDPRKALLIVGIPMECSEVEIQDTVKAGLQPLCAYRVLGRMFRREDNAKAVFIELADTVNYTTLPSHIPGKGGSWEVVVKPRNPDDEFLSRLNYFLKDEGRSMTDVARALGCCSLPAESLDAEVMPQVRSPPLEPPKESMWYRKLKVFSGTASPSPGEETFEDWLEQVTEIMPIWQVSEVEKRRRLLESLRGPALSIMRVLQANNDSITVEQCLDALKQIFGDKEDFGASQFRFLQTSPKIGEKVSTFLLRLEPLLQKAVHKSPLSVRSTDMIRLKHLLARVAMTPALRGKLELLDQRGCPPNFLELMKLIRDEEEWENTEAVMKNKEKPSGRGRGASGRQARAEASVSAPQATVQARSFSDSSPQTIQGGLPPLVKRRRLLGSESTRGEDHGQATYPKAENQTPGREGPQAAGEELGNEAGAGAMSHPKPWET
T5 sequence (P98170 whole entry, change not shown): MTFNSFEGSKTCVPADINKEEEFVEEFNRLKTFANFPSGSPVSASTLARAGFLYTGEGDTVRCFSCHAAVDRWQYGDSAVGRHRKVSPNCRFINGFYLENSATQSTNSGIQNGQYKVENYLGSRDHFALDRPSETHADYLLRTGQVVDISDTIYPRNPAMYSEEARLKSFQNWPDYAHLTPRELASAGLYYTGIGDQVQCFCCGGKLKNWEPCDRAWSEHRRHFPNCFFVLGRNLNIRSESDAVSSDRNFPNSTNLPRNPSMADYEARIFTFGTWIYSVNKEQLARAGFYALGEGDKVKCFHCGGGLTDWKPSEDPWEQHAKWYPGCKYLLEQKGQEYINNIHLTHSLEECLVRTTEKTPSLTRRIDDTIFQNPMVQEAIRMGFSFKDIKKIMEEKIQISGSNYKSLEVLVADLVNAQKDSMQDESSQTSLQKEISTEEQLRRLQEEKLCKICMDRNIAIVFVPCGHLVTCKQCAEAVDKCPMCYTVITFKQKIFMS

B1: TBRE1024 (antibody, V domains shown)
VH: PVQLQESGPGLVKPSETLSLTCTVSGGSISSDNYYWSWLRQHPGKGLEWIGYIYFSVTTYYNPSLKSRVTISLDTSKNQFSLKLSSVTAADTAVYYCASGYVSFDLWGQGTLVTVSS
VL: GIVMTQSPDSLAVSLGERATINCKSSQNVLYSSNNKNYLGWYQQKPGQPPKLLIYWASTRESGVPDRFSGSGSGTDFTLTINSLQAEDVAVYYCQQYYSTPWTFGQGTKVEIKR
notes: detected with anti-human IgG Fc
B1: binds [1].

B2: TBRE1027 (antibody, V domains shown)
VH: EVQLLESGGGLVQPGGSLRLSCAASGFTFSSYAMSWVRQAPGKGLEWVSTISGSGHSTYYADSVKGRFTISRDNSKNTLYLQMNSLRAEDTAVYYCAKSTLGGGFDFWGQGTLVTVSS
VL: DIQMTQSPFSLSASVGDRVTITCRASQSISSYLNWYQQKPGKAPKLLIYAASSLQSGVPSRFSGSGSGTDFTLTISSLQPEDFATYYCHQSYSTSLTFGGGTKVEIKR
notes: as for B1
B2: binds (DEAD-box helicase 18); binds [2]; binds [3].

B3: TBRE1032 (antibody, V domains shown)
VH: EVQLVESGGGLVQPGGSLRLSCAASGFTFSSYDFHWVRQPTGKGLEWVSAIGTAGDTLYLDSVKGRFTISRENAKNSLYLQMNSLRAGDTAVYYCARVNWNSDTFDSWGQGTLVTVSS
VL: VSSELTQDPAVSVALGQTVRITCQGDSLRRYYASWYQQKAGQAPILVIYGENNRPSGIPDRFSGSGSGNTASLTITGAQAEDEADYYCDSRDSSGNLVVFGGGTKLTVL
notes: as for B1
B3: binds [4].

B4: TBRE1034 (antibody, V domains shown)
VH: QVQLVESGGGLVEPGGSLRLSCAASGFTFSDYYMSWIRQAPGKRLEWISHMSSGGNRRHYADSVRGRFTISRDNAKNSLYLQMNSMRADDTAVYYCARDKRSGMTSDRRIDYWGQGTRVTVSS
VL: DIQMTQSPSSLSASVGDRITITCRASQSVGTYLSWFQQKPGKAPKLLIYAASSLQSGVPSRFSGSGSGTDFTLTISSLQPEDFATYFCQQSYSVPPWTFGQGTKVEIKR
notes: as for B1
B4: binds [5]; binds [6].

B5: TBRE1036 (antibody, V domains shown)
VH: QVQLVESGGGVVQPGRSLRLSCAASGFTFSSYAMHWVRQAPGKGLEWVAVISYDGSNKYYADSLKGRFTISRDNSKDTLYLQVNSLRPEDTAVYYCARVNIAAAGTLDYWGQGTLVTVSS
VL: EIVLTQSPGTLSLSPGERATLSCRASQSVSSRYLAWYQQKPGQAPRLLIHGASSRATGIPDRFSGSGSGTDFTLTISRLEPEDFAVYYCQQYGSAWTFGQGTKVEIKR
notes: as for B1
B5: binds [7].

B6: TBRE1039 (antibody, V domains shown)
VH: PVQLVQSGAEVKKPGSSVKVSCKASGGTFSSYAISWVRQAPGQGLEWMGGIIPIFGTANYAQKFQGRVTITADESTSTAYMELSSLRSEDTAVYYCARENWNSAGTTEWFDPWGQGTLVTVSS
VL: PYVLTQPPSVSVAPGKTARITCGGNNIGSKSVHWYQQKPGQAPVLVIYYDSDRPSGIPERFSGSNSGNTATLTISRVEAGDEADYYCQVWDSSSDHYVVFGGGTKLTVLG
notes: as for B1
B6: binds [8]; binds [9]; binds [10].
